Consider 22 molecules from US20240209076A1 (KODIAK SCIENCES, published 2024).

First the molecules themselves.
B1: anti-IL-6 Fab, light chain Q89A (Fab, V domains shown)
VH: EVQLVESGGGLVQPGGSLRLSCAASGFTFSPFAMSWVRQAPGKGLEWVAKISPGGSWTYYSDTVTGRFTFSLDTSKSTAYLQMNSLRAEDTAVYYCARQLWGYYALDIWGQGTLVTVSS
VL: DIQLTQSPSSLSASVGDRVTITCSASISVSYMYWYQQKPGKAPKLLIYDMSNLASGVPSRFSGSGSGTDFTLTISSLQPEDFATYYCMAWSGYPYTFGQGTKVEIK
notes: see m39
B2: anti-IL-6 Fab, light chain S30G (Fab, V domains shown)
VH: EVQLVESGGGLVQPGGSLRLSCAASGFTFSPFAMSWVRQAPGKGLEWVAKISPGGSWTYYSDTVTGRFTFSLDTSKSTAYLQMNSLRAEDTAVYYCARQLWGYYALDIWGQGTLVTVSS
VL: DIQLTQSPSSLSASVGDRVTITCSASISVGYMYWYQQKPGKAPKLLIYDMSNLASGVPSRFSGSGSGTDFTLTISSLQPEDFATYYCMQWSGYPYTFGQGTKVEIK
notes: see m39
B3: anti-IL-6 Fab, light chain S28E (Fab, V domains shown)
VH: EVQLVESGGGLVQPGGSLRLSCAASGFTFSPFAMSWVRQAPGKGLEWVAKISPGGSWTYYSDTVTGRFTFSLDTSKSTAYLQMNSLRAEDTAVYYCARQLWGYYALDIWGQGTLVTVSS
VL: DIQLTQSPSSLSASVGDRVTITCSASIEVSYMYWYQQKPGKAPKLLIYDMSNLASGVPSRFSGSGSGTDFTLTISSLQPEDFATYYCMQWSGYPYTFGQGTKVEIK
notes: see m39
B4: anti-IL-6 Fab, light chain Q89S (Fab, V domains shown)
VH: EVQLVESGGGLVQPGGSLRLSCAASGFTFSPFAMSWVRQAPGKGLEWVAKISPGGSWTYYSDTVTGRFTFSLDTSKSTAYLQMNSLRAEDTAVYYCARQLWGYYALDIWGQGTLVTVSS
VL: DIQLTQSPSSLSASVGDRVTITCSASISVSYMYWYQQKPGKAPKLLIYDMSNLASGVPSRFSGSGSGTDFTLTISSLQPEDFATYYCMSWSGYPYTFGQGTKVEIK
notes: see m39
B5: anti-IL-6 Fab, light chain S51K (Fab, V domains shown)
VH: EVQLVESGGGLVQPGGSLRLSCAASGFTFSPFAMSWVRQAPGKGLEWVAKISPGGSWTYYSDTVTGRFTFSLDTSKSTAYLQMNSLRAEDTAVYYCARQLWGYYALDIWGQGTLVTVSS
VL: DIQLTQSPSSLSASVGDRVTITCSASISVSYMYWYQQKPGKAPKLLIYDMKNLASGVPSRFSGSGSGTDFTLTISSLQPEDFATYYCMQWSGYPYTFGQGTKVEIK
notes: see m39
B6: anti-IL-6 Fab, light chain S24V (Fab, V domains shown)
VH: EVQLVESGGGLVQPGGSLRLSCAASGFTFSPFAMSWVRQAPGKGLEWVAKISPGGSWTYYSDTVTGRFTFSLDTSKSTAYLQMNSLRAEDTAVYYCARQLWGYYALDIWGQGTLVTVSS
VL: DIQLTQSPSSLSASVGDRVTITCVASISVSYMYWYQQKPGKAPKLLIYDMSNLASGVPSRFSGSGSGTDFTLTISSLQPEDFATYYCMQWSGYPYTFGQGTKVEIK
notes: see m39
B7: anti-IL-6 Fab, light chain S26H (Fab, V domains shown)
VH: EVQLVESGGGLVQPGGSLRLSCAASGFTFSPFAMSWVRQAPGKGLEWVAKISPGGSWTYYSDTVTGRFTFSLDTSKSTAYLQMNSLRAEDTAVYYCARQLWGYYALDIWGQGTLVTVSS
VL: DIQLTQSPSSLSASVGDRVTITCSAHISVSYMYWYQQKPGKAPKLLIYDMSNLASGVPSRFSGSGSGTDFTLTISSLQPEDFATYYCMQWSGYPYTFGQGTKVEIK
notes: see m39
B8: anti-IL-6 Fab, light chain S55P (Fab, V domains shown)
VH: EVQLVESGGGLVQPGGSLRLSCAASGFTFSPFAMSWVRQAPGKGLEWVAKISPGGSWTYYSDTVTGRFTFSLDTSKSTAYLQMNSLRAEDTAVYYCARQLWGYYALDIWGQGTLVTVSS
VL: DIQLTQSPSSLSASVGDRVTITCSASISVSYMYWYQQKPGKAPKLLIYDMSNLAPGVPSRFSGSGSGTDFTLTISSLQPEDFATYYCMQWSGYPYTFGQGTKVEIK
notes: see m39
B9: anti-IL-6 Fab, light chain S55R (Fab, V domains shown)
VH: EVQLVESGGGLVQPGGSLRLSCAASGFTFSPFAMSWVRQAPGKGLEWVAKISPGGSWTYYSDTVTGRFTFSLDTSKSTAYLQMNSLRAEDTAVYYCARQLWGYYALDIWGQGTLVTVSS
VL: DIQLTQSPSSLSASVGDRVTITCSASISVSYMYWYQQKPGKAPKLLIYDMSNLARGVPSRFSGSGSGTDFTLTISSLQPEDFATYYCMQWSGYPYTFGQGTKVEIK
notes: see m39
B10: anti-IL-6 Fab, light chain S24K (Fab, V domains shown)
VH: EVQLVESGGGLVQPGGSLRLSCAASGFTFSPFAMSWVRQAPGKGLEWVAKISPGGSWTYYSDTVTGRFTFSLDTSKSTAYLQMNSLRAEDTAVYYCARQLWGYYALDIWGQGTLVTVSS
VL: DIQLTQSPSSLSASVGDRVTITCKASISVSYMYWYQQKPGKAPKLLIYDMSNLASGVPSRFSGSGSGTDFTLTISSLQPEDFATYYCMQWSGYPYTFGQGTKVEIK
notes: see m39
B11: anti-IL-6 Fab, light chain S26G (Fab, V domains shown)
VH: EVQLVESGGGLVQPGGSLRLSCAASGFTFSPFAMSWVRQAPGKGLEWVAKISPGGSWTYYSDTVTGRFTFSLDTSKSTAYLQMNSLRAEDTAVYYCARQLWGYYALDIWGQGTLVTVSS
VL: DIQLTQSPSSLSASVGDRVTITCSAGISVSYMYWYQQKPGKAPKLLIYDMSNLASGVPSRFSGSGSGTDFTLTISSLQPEDFATYYCMQWSGYPYTFGQGTKVEIK
notes: see m39
B12: anti-IL-6 Fab, light chain S55L (Fab, V domains shown)
VH: EVQLVESGGGLVQPGGSLRLSCAASGFTFSPFAMSWVRQAPGKGLEWVAKISPGGSWTYYSDTVTGRFTFSLDTSKSTAYLQMNSLRAEDTAVYYCARQLWGYYALDIWGQGTLVTVSS
VL: DIQLTQSPSSLSASVGDRVTITCSASISVSYMYWYQQKPGKAPKLLIYDMSNLALGVPSRFSGSGSGTDFTLTISSLQPEDFATYYCMQWSGYPYTFGQGTKVEIK
notes: see m39
B13: anti-IL-6 Fab, light chain S28W (Fab, V domains shown)
VH: EVQLVESGGGLVQPGGSLRLSCAASGFTFSPFAMSWVRQAPGKGLEWVAKISPGGSWTYYSDTVTGRFTFSLDTSKSTAYLQMNSLRAEDTAVYYCARQLWGYYALDIWGQGTLVTVSS
VL: DIQLTQSPSSLSASVGDRVTITCSASIWVSYMYWYQQKPGKAPKLLIYDMSNLASGVPSRFSGSGSGTDFTLTISSLQPEDFATYYCMQWSGYPYTFGQGTKVEIK
notes: see m39
B14: anti-IL-6 Fab, light chain S30A (Fab, V domains shown)
VH: EVQLVESGGGLVQPGGSLRLSCAASGFTFSPFAMSWVRQAPGKGLEWVAKISPGGSWTYYSDTVTGRFTFSLDTSKSTAYLQMNSLRAEDTAVYYCARQLWGYYALDIWGQGTLVTVSS
VL: DIQLTQSPSSLSASVGDRVTITCSASISVAYMYWYQQKPGKAPKLLIYDMSNLASGVPSRFSGSGSGTDFTLTISSLQPEDFATYYCMQWSGYPYTFGQGTKVEIK
notes: see m39
B15: anti-IL-6 Fab, light chain S51R (Fab, V domains shown)
VH: EVQLVESGGGLVQPGGSLRLSCAASGFTFSPFAMSWVRQAPGKGLEWVAKISPGGSWTYYSDTVTGRFTFSLDTSKSTAYLQMNSLRAEDTAVYYCARQLWGYYALDIWGQGTLVTVSS
VL: DIQLTQSPSSLSASVGDRVTITCSASISVSYMYWYQQKPGKAPKLLIYDMRNLASGVPSRFSGSGSGTDFTLTISSLQPEDFATYYCMQWSGYPYTFGQGTKVEIK
notes: see m39
B16: anti-IL-6 Fab, light chain S55W (Fab, V domains shown)
VH: EVQLVESGGGLVQPGGSLRLSCAASGFTFSPFAMSWVRQAPGKGLEWVAKISPGGSWTYYSDTVTGRFTFSLDTSKSTAYLQMNSLRAEDTAVYYCARQLWGYYALDIWGQGTLVTVSS
VL: DIQLTQSPSSLSASVGDRVTITCSASISVSYMYWYQQKPGKAPKLLIYDMSNLAWGVPSRFSGSGSGTDFTLTISSLQPEDFATYYCMQWSGYPYTFGQGTKVEIK
notes: see m39
B17: anti-IL-6 Fab, light chain S26K (Fab, V domains shown)
VH: EVQLVESGGGLVQPGGSLRLSCAASGFTFSPFAMSWVRQAPGKGLEWVAKISPGGSWTYYSDTVTGRFTFSLDTSKSTAYLQMNSLRAEDTAVYYCARQLWGYYALDIWGQGTLVTVSS
VL: DIQLTQSPSSLSASVGDRVTITCSAKISVSYMYWYQQKPGKAPKLLIYDMSNLASGVPSRFSGSGSGTDFTLTISSLQPEDFATYYCMQWSGYPYTFGQGTKVEIK
notes: see m39
B18: anti-IL-6 Fab, light chain S24P (Fab, V domains shown)
VH: EVQLVESGGGLVQPGGSLRLSCAASGFTFSPFAMSWVRQAPGKGLEWVAKISPGGSWTYYSDTVTGRFTFSLDTSKSTAYLQMNSLRAEDTAVYYCARQLWGYYALDIWGQGTLVTVSS
VL: DIQLTQSPSSLSASVGDRVTITCPASISVSYMYWYQQKPGKAPKLLIYDMSNLASGVPSRFSGSGSGTDFTLTISSLQPEDFATYYCMQWSGYPYTFGQGTKVEIK
notes: see m39
B19: anti-IL-6 Fab, light chain S55V (Fab, V domains shown)
VH: EVQLVESGGGLVQPGGSLRLSCAASGFTFSPFAMSWVRQAPGKGLEWVAKISPGGSWTYYSDTVTGRFTFSLDTSKSTAYLQMNSLRAEDTAVYYCARQLWGYYALDIWGQGTLVTVSS
VL: DIQLTQSPSSLSASVGDRVTITCSASISVSYMYWYQQKPGKAPKLLIYDMSNLAVGVPSRFSGSGSGTDFTLTISSLQPEDFATYYCMQWSGYPYTFGQGTKVEIK
notes: see m39
B20: anti-IL-6 Fab, light chain S24I (Fab, V domains shown)
VH: EVQLVESGGGLVQPGGSLRLSCAASGFTFSPFAMSWVRQAPGKGLEWVAKISPGGSWTYYSDTVTGRFTFSLDTSKSTAYLQMNSLRAEDTAVYYCARQLWGYYALDIWGQGTLVTVSS
VL: DIQLTQSPSSLSASVGDRVTITCIASISVSYMYWYQQKPGKAPKLLIYDMSNLASGVPSRFSGSGSGTDFTLTISSLQPEDFATYYCMQWSGYPYTFGQGTKVEIK
notes: see m39
B21: anti-IL-6 Fab, light chain S55I (Fab, V domains shown)
VH: EVQLVESGGGLVQPGGSLRLSCAASGFTFSPFAMSWVRQAPGKGLEWVAKISPGGSWTYYSDTVTGRFTFSLDTSKSTAYLQMNSLRAEDTAVYYCARQLWGYYALDIWGQGTLVTVSS
VL: DIQLTQSPSSLSASVGDRVTITCSASISVSYMYWYQQKPGKAPKLLIYDMSNLAIGVPSRFSGSGSGTDFTLTISSLQPEDFATYYCMQWSGYPYTFGQGTKVEIK
notes: see m39
B22: anti-IL-6 Fab, light chain S51D (Fab, V domains shown)
VH: EVQLVESGGGLVQPGGSLRLSCAASGFTFSPFAMSWVRQAPGKGLEWVAKISPGGSWTYYSDTVTGRFTFSLDTSKSTAYLQMNSLRAEDTAVYYCARQLWGYYALDIWGQGTLVTVSS
VL: DIQLTQSPSSLSASVGDRVTITCSASISVSYMYWYQQKPGKAPKLLIYDMDNLASGVPSRFSGSGSGTDFTLTISSLQPEDFATYYCMQWSGYPYTFGQGTKVEIK
notes: see m39

Chain of recombinant human IL-6 (P05231 30-212 limits assumed): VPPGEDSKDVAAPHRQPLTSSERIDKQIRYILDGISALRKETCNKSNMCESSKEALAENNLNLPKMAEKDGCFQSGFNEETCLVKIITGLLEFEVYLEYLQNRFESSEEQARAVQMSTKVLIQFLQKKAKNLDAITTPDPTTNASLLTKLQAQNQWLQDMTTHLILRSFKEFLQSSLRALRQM

This test concerns the target recombinant human IL-6 (human, UniProt P05231 30-212). In words: SPR, IL-6 on CM5 chip, Fab lysate, 25 C. For orientation: In SPR one partner is held on a chip, and binding of the other changes the refractive index at the surface.
For B1, the koff came to 0.00585 s⁻¹. Take B2: the koff came to 0.00677 s⁻¹.

With B3, the koff amounted to 0.00451 s⁻¹.

With B4, the off-rate constant (koff) was determined as 0.00601 s⁻¹. As for B5, the koff was determined as 0.00461 s⁻¹. As for B6, the koff came to 0.00416 s⁻¹.

For the molecule B7, the koff amounted to 0.00427 s⁻¹. B8: the koff amounted to 0.0052 s⁻¹. As to B9, the koff is 0.00526 s⁻¹. Under B10 stands 0.00416 s⁻¹. As to B11, the koff turned out to be 0.00394 s⁻¹. In the case of B12, the koff is 0.00507 s⁻¹. Take B13: the koff stood at 0.00398 s⁻¹. Take B14: the koff turned out to be 0.00654 s⁻¹. Consider B15, for which the dissociation rate constant (koff) worked out at 0.00467 s⁻¹. As for B16, the koff was 0.0051 s⁻¹. As for B17, the koff worked out at 0.00441 s⁻¹. The figure for B18 is 0.00397 s⁻¹. Consider B19, for which the koff came out at 0.00516 s⁻¹.

Take B20: the koff was found to be 0.00412 s⁻¹. Regarding B21, the koff worked out at 0.00505 s⁻¹. The figure for B22 is 0.00466 s⁻¹.

In general, koff refers to the rate constant with which the complex falls apart.
